Publication PMC7774954 (PLoS ONE, 2020)
Where no end group is shown, it is not given here. The star is where a group is joined. Biotin = O=C1N[C@H]2[C@H](CS[C@H]2CCCCC(=O)*)N1; TTDS = NCCCOCCOCCOCCCNC(=O)CCC(=O)*

T1: NHERF1-1 (human, UniProt O14745 14-94)
T1 construct: PDZ domain number 1 of human NHERF1; also called NHERF1 PDZ dom 1; first PDZ domain of the NHERF1 protein; source: E. coli, in crude cell lysate; not shown: His, N-terminal, kept
T1 sequence (looked up): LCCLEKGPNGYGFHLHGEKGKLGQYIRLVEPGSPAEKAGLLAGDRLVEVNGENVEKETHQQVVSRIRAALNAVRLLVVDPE

T2: PDZD7-3, third PDZ domain of PDZD7 (human, UniProt Q9H5P4 862-934)
T2 construct: PDZD7, human, PDZ domain 3; not shown: His6, N-terminal, kept; MBP, N-terminal, kept
T2 sequence (looked up): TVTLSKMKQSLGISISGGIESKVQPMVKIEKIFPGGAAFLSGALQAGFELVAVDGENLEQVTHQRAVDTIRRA

T3: PTPN13-2 (human, UniProt Q12923 1368-1452)
T3 construct: PDZ domain number 2 of human PTPN13; also called PTPN13 PDZ dom 2; source: E. coli, in crude cell lysate; not shown: His, N-terminal, kept
T3 sequence (looked up): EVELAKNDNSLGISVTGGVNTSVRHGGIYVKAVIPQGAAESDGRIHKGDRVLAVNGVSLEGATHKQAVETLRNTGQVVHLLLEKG

T4: PARD3B-1, first PDZ domain of PARD3B (human, UniProt Q8TEW8 201-289)
T4 construct: PARD3B, human, PDZ domain 1; not shown: His6, N-terminal, kept; MBP, N-terminal, kept
T4 sequence (looked up): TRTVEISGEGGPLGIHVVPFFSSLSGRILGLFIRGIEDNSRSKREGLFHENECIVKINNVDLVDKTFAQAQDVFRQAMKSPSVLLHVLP

B1: PTEN_11 (peptide, UniProt P60484 393-403, looked up)
peptide: {Biotin-TTDS}-DEDQHTQITKV
notes: also called 11-mer wild-type PTEN PBM peptide; native PTEN_11 PBM; source: synthetic peptide (Chemical Peptide Synthesis Service of the IGBMC, Fmoc)
B2: PTEN_Ac (peptide, UniProt P60484 393-403, looked up)
peptide: {Biotin-TTDS}-DEDQHTQITK(Ac)V
notes: also called acetylated version of PTEN_11; acetylated peptide; source: synthetic peptide (Chemical Peptide Synthesis Service of the IGBMC, Fmoc)
B3: PTEN_11, 11-mer wild-type PDZ-binding motif peptide of PTEN (peptide)
peptide: {Biotin-TTDS}-DEDQHTQITKV
notes: Labelled 'PTEN' in Supp; source: synthetic peptide (Chemical Peptide Synthesis Service of the IGBMC)
B4: PTEN_KR, 11-mer PTEN PDZ-binding motif peptide with K402R (peptide)
peptide: {Biotin-TTDS}-DEDQHTQITRV
notes: PTEN, human, canonical isoform I, residues 393-403 with K402R; source: synthetic peptide (Chemical Peptide Synthesis Service of the IGBMC)
B5: PTEN_Ac, 11-mer PTEN PDZ-binding motif peptide acetylated at K402 (peptide)
peptide: {Biotin-TTDS}-DEDQHTQITK(Ac)V
notes: PTEN, human, canonical isoform I, residues 393-403, K402 acetylated (acK); source: synthetic peptide (Chemical Peptide Synthesis Service of the IGBMC)
B6: PTEN_KR (peptide, UniProt P60484 393-403, looked up)
peptide: {Biotin-TTDS}-DEDQHTQITRV
notes: also called K402R mutant; source: synthetic peptide (Chemical Peptide Synthesis Service of the IGBMC, Fmoc)
B7: PTEN_13, 13-mer wild-type PDZ-binding motif peptide of PTEN (peptide)
peptide: {Biotin-TTDS}-PFDEDQHTQITKV
notes: source: synthetic peptide, bought: JPT Innovative Peptide Solutions (70%-80% purity)

Key:
NHERF1-1 = target: T1, NHERF1-1; assay: holdup assay; biotinylated PBM peptide saturating streptavidin resin (biotin resin as reference); tag-PDZ at 4 uM in crude E. coli lysate, 15 min, filtration, free tag-PDZ by capillary electrophoresis; singlicate; BI cut-off 0.20; BI converted into KD with the peptide concentration back-calculated from FP; conditions: one partner purified
DLG4-1 = DLG4-1 (human, UniProt P78352 65-151); assay: as above; conditions: one partner purified
Chain of DLG4-1 (P78352 65-151, looked up): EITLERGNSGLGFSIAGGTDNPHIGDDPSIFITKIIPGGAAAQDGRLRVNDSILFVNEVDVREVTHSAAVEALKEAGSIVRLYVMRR

MAGI2-3 = target: T5, MAGI2-3 (human, UniProt Q86UL8 605-683); assay: as above; conditions: one partner purified
T5 construct: PDZ domain number 3 of human MAGI2; also called MAGI2 PDZ dom 3; source: E. coli, in crude cell lysate; not shown: His, N-terminal, kept
T5 sequence (Q86UL8 605-683): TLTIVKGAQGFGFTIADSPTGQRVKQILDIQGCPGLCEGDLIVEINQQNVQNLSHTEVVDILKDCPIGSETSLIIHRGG

MAGI1-3 = target: T6, MAGI1-3 (human, UniProt Q96QZ7 643-721); assay: as above; conditions: one partner purified
T6 construct: PDZ domain number 3 of human MAGI1; also called MAGI1 PDZ dom 3; source: E. coli, in crude cell lysate; not shown: His, N-terminal, kept
T6 sequence (Q96QZ7 643-721): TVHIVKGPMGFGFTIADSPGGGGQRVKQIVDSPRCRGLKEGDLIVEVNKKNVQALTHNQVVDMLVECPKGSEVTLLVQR

MAGI2-2 = target: T7, MAGI2-2 (human, UniProt Q86UL8 426-510); assay: as above; conditions: one partner purified
T7 construct: PDZ domain number 2 of human MAGI2; also called MAGI2 PDZ dom 2; source: E. coli, in crude cell lysate; not shown: His, N-terminal, kept
T7 sequence (Q86UL8 426-510): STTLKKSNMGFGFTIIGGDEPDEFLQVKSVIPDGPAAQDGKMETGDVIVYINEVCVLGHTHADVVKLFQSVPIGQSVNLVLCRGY

[1] = target: T2, PDZD7-3, third PDZ domain of PDZD7; assay: fluorescence polarisation; competitive: pre-formed complex of PDZ domain (>60-80% complex) and 50 nM fluorescent tracer peptide, increasing amount of unlabeled PTEN peptide (8 concentrations); 20 mM HEPES pH 7.5, 150 mM NaCl, 0.5 mM TCEP, 0.01% Tween 20; triplicate; competitive binding model (ProFit); apparent; conditions: both partners purified
[2] = target: T8, GRID2IP-2, second PDZ domain of GRID2IP (human, UniProt A4D2P6 279-356); assay: as above; conditions: both partners purified
T8 construct: GRID2IP, human, PDZ domain 2; not shown: His6, N-terminal, kept; MBP, N-terminal, kept
T8 sequence (A4D2P6 279-356): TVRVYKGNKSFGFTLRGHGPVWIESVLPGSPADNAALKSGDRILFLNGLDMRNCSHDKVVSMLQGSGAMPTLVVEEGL

[3] = target: T9, MAGI2-2, second PDZ domain of MAGI2 (human, UniProt Q86UL8 426-510); assay: as above; conditions: both partners purified
T9 construct: not shown: His6, N-terminal, kept; MBP, N-terminal, kept
T9 sequence (Q86UL8 426-510): as the sequence (Q86UL8 426-510) above

NHERF2-2 = target: T10, NHERF2-2 (human, UniProt Q15599 150-230); assay: holdup assay; biotinylated PBM peptide saturating streptavidin resin (biotin resin as reference); tag-PDZ at 4 uM in crude E. coli lysate, 15 min, filtration, free tag-PDZ by capillary electrophoresis; singlicate; BI cut-off 0.20; BI converted into KD with the peptide concentration back-calculated from FP; conditions: one partner purified
T10 construct: PDZ domain number 2 of human NHERF2; also called NHERF2 PDZ dom 2; source: E. coli, in crude cell lysate; not shown: His, N-terminal, kept
T10 sequence (Q15599 150-230): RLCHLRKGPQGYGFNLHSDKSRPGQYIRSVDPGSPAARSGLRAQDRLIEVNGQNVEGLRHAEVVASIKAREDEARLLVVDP

PARD3-3 = target: T11, PARD3-3 (human, UniProt Q8TEW0 590-677); assay: as above; conditions: one partner purified
T11 construct: the text says PARD3-1; also called PARD3 PDZ dom 3; source: E. coli, in crude cell lysate; not shown: His, N-terminal, kept
T11 sequence (Q8TEW0 590-677): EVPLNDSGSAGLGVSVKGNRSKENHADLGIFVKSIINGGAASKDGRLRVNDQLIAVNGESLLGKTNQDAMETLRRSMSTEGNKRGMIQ

MAGI3-2 = target: T12, MAGI3-2 (human, UniProt Q5TCQ9 410-492); assay: as above; conditions: one partner purified
T12 construct: PDZ domain number 2 of human MAGI3; also called MAGI3 PDZ dom 2; source: E. coli, in crude cell lysate; not shown: His, N-terminal, kept
T12 sequence (Q5TCQ9 410-492): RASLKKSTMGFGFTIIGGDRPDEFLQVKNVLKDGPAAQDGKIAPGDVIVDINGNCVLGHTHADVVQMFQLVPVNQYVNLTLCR

PTPN13-2 = target: T3, PTPN13-2; assay: as above; conditions: one partner purified
DLG1-2 = target: T13, DLG1-2 (human, UniProt Q12959 319-405); assay: as above; conditions: one partner purified
T13 construct: PDZ domain number 2 of human DLG1; also called DLG1 PDZ dom 2; source: E. coli, in crude cell lysate; not shown: His, N-terminal, kept

NHERF2-1 = target: T14, NHERF2-1 (human, UniProt Q15599 11-90); assay: as above; conditions: one partner purified
T14 construct: PDZ domain number 1 of human NHERF2; also called NHERF2 PDZ dom 1; source: E. coli, in crude cell lysate; not shown: His, N-terminal, kept
T14 sequence (Q15599 11-90): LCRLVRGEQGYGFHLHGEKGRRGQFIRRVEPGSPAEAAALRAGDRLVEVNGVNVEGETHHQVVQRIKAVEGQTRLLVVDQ

[4] = target: T2, PDZD7-3, third PDZ domain of PDZD7; assay: fluorescence polarisation; direct: N-terminally fluorescein-labelled PBM peptide (tracer) with increasing amounts of MBP-PDZ; 384-well plates; triplicate; direct binding model (ProFit); conditions: both partners purified
[5] = target: T8, GRID2IP-2, second PDZ domain of GRID2IP; assay: as above; conditions: both partners purified
[6] = target: T4, PARD3B-1, first PDZ domain of PARD3B; assay: as above; conditions: both partners purified

Binder	Kd (NHERF1-1) [µM]	Kd (DLG4-1) [µM]	Kd (MAGI2-3) [µM]	Kd (MAGI1-3) [µM]	Kd (MAGI2-2) [µM]	Kd [1] [µM]	Kd [2] [µM]	further results
B1	33	293	47	30	152	–	–	–
B2	14	155	15	10	56	–	–	–
B3	–	–	–	–	–	20.1	87	–
B4	–	–	–	–	–	8.2	51.6	–
B5	–	–	–	–	–	2.84	36.7	Kd [3]: 66.4 µM
B6	4	81	21	15	29	–	–	Kd (NHERF2-2): 21 µM; Kd (PARD3-3): 56 µM; Kd (MAGI3-2): 29 µM; Kd (PTPN13-2): 153 µM; Kd (DLG1-2): 71 µM; Kd (NHERF2-1): 120 µM
fluorescein-KLPSTTL (source: synthetic peptide) [fRSK1, fluorescein-labelled RSK1 PBM peptide]	–	–	–	–	–	–	–	Kd [4]: 1.57 µM; Kd [5]: 5.43 µM; Kd [6]: 33.7 µM
B7	–	–	–	–	–	5.76	–	Kd [3]: 79.7 µM
